Experimental data taken from patent publication US20250043302A1, “MUTATED HYDROXYPHENYLPYRUVATE DIOXYGENASE POLYPEPTIDE, AND CODING GENE AND USE THEREOF” (BEIJING DABEINONG BIOTECHNOLOGY CO., LTD., priority 2021, published 2025).

Assays:
Type in all cases: in vivo
[1] = tested on: Arabidopsis thaliana T1 plants; assay: Topramezone tolerance of transgenic Arabidopsis thaliana T1 plants (spray, bleached leaf area grade, damage score); conditions: Table 10; for Classification and statistics of the grade of pesticide damage Grade 0: number of plants at grade 0; for Classification and statistics of the grade of pesticide damage Grade 1: number of plants at grade 1; for Classification and statistics of the grade of pesticide damage Grade 2: number of plants at grade 2; for Classification and statistics of the grade of pesticide damage Grade 3: number of plants at grade 3; for Scores: pesticide damage score
Summary of the method: (§1)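 Damage was assessed by bleaching grade (0 none; 1 <50%; 2 >50%; 3 100% of leaf area) one week after spraying. Sprays on 18-day-old T1 and wild-type plants used field-rate multiples: topramezone 25–200, isoxaflutole 35–280, mesotrione 52.5–420 g ai/ha.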

[2] = tested on: Arabidopsis thaliana T1 plants; assay: Isoxaflutole tolerance of transgenic Arabidopsis thaliana T1 plants (spray, bleached leaf area grade, damage score); conditions: Table 11; for Classification and statistics of the grade of pesticide damage Grade 0: number of plants at grade 0; for Classification and statistics of the grade of pesticide damage Grade 1: number of plants at grade 1; for Classification and statistics of the grade of pesticide damage Grade 2: number of plants at grade 2; for Classification and statistics of the grade of pesticide damage Grade 3: number of plants at grade 3; for Scores: pesticide damage score;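 for Scores: Weighted damage index from 0 to 100 where higher means more damage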
Summary of the method: as §1

[3] = tested on: Arabidopsis thaliana T1 plants; assay: Mesotrione tolerance of transgenic Arabidopsis thaliana T1 plants (spray, bleached leaf area grade, damage score); design: Scores: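 damage score 0-100 computed as Σ(N×S)/(T×M)×100 over grades 0-3 with higher meaning more damage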; conditions: Table 12; for Classification and statistics of the grade of pesticide damage Grade 0: number of plants at grade 0; for Classification and statistics of the grade of pesticide damage Grade 1: number of plants at grade 1; for Classification and statistics of the grade of pesticide damage Grade 2: number of plants at grade 2; for Classification and statistics of the grade of pesticide damage Grade 3: number of plants at grade 3; for Scores: pesticide damage score
Summary of the method: as §1

B1: HPPDm-9-02: nucleotide sequence encoding AsHPPDm-A106G-K351N-F372A-F383W with mutated C-terminal; vector DBN11790 (nucleic acid)
DNA: ATGCCACCTACTCCAGCTACAGCTACTGGTGCTGCTGCTGCTGCCGTTACTCCTGAGCACGCTGCCAGGTCATTCCCCAGGGTGGTTCGCGTGAACCCCAGATCTGATAGGTTCCCAGTTCTGAGCTTCCACCATGTTGAGCTGTGGTGCGCTGATGCTGCTTCTGCTGCTGGCAGGTTCTCTTTCGCTCTTGGTGCTCCACTCGCTGCTAGATCTGATCTGTCTACAGGAAATAGCGCTCATGCCTCACTCCTGCTTCGCTCAGGTGCTTTGGCCTTCCTCTTCACCGCTCCATATGCTCCCCCACCTCAGGAGGGTGCTACTGCTGCTGCTACAGCCTCCATTCCAAGCTTCTCAGCTGATGCCGCTAGAACCTTCGCTGCTGCTCATGGACTTGCCGTGAGGTCTGTTGGTGTTCGCGTGGCTGATGCTGCTGAGGCTTTCAGAGTTTCCGTTGCCGGCGGAGCTAGGCCAGCTTTCGCTCCTGCTGATTTGGGACATGGTTTCGGCCTGGCTGAGGTTGAGCTTTACGGTGACGTGGTTCTCCGCTTCGTGTCTTACCCAGATGAGACTGACCTGCCTTTCCTTCCCGGCTTCGAGAGAGTTTCCTCTCCTGGTGCCGTGGATTACGGCCTGACAAGGTTCGACCACGTGGTTGGAAACGTTCCCGAGATGGCTCCAGTGATCGATTACATGAAGGGCTTCCTTGGATTCCATGAGTTCGCCGAGTTCACTGCTGAGGACGTGGGAACCACTGAGTCCGGTTTGAACTCTGTGGTTCTCGCCAACAATTCTGAGGCTGTTTTGCTCCCTCTGAATGAGCCTGTGCATGGAACCAAGAGGAGAAGCCAGATTCAAACTTACCTGGAGTACCACGGTGGCCCTGGAGTTCAGCATATCGCCCTTGCTTCTAATGATGTGTTGCGCACACTCAGAGAGATGCGCGCCAGAACCCCCATGGGAGGTTTCGAGTTCATGGCCCCACCACAGGCTAAGTACTACGAGGGCGTTAGAAGGATTGCTGGAGACGTGTTGAGCGAGGAGCAGATCAATGAGTGCCAAGAGCTGGGTGTTCTTGTGGATAGGGATGACCAGGGCGTTCTGCTTCAAATTGCCACTAAGCCAGTGGGCGACCGCCCTACATTCTGGCTTGAGATGATTCAAAGAATCGGCTGCATGGAGAAGGATGAGGTTGGACAGGAGTACCAAAAGGGCGGATGCGGTGGCTTCGGAAAGGGTAACTTCAGCGAGTTGTTCAAGTCAATCGAGGAGTATGAGAAGACCTTGGAGGCCAAGCAGCTCGTGGGTTGA
modifications: mutated C-terminus; HPPDm-9-02 Nucleotide Sequence
notes: vector DBN11790
Resistance evaluation ([1]; topramezone 100 g ai/ha (4×)): Highly resistant | Classification and statistics of the grade of pesticide damage Grade 0 ([1]; topramezone 100 g ai/ha (4×)): 16 | Classification and statistics of the grade of pesticide damage Grade 1 ([1]; topramezone 100 g ai/ha (4×)): 0 | Classification and statistics of the grade of pesticide damage Grade 2 ([1]; topramezone 100 g ai/ha (4×)): 0 | Classification and statistics of the grade of pesticide damage Grade 3 ([1]; topramezone 100 g ai/ha (4×)): 0 | Scores ([1]; topramezone 100 g ai/ha (4×)): 0 | Resistance evaluation ([1]; topramezone 200 g ai/ha (8×)): Highly resistant | Classification and statistics of the grade of pesticide damage Grade 0 ([1]; topramezone 200 g ai/ha (8×)): 16 | Classification and statistics of the grade of pesticide damage Grade 1 ([1]; topramezone 200 g ai/ha (8×)): 0 | Classification and statistics of the grade of pesticide damage Grade 2 ([1]; topramezone 200 g ai/ha (8×)): 0 | Classification and statistics of the grade of pesticide damage Grade 3 ([1]; topramezone 200 g ai/ha (8×)): 0 | Scores ([1]; topramezone 200 g ai/ha (8×)): 0 | Resistance evaluation ([2]; isoxaflutole 140 g ai/ha (2×)): Highly resistant | Classification and statistics of the grade of pesticide damage Grade 0 ([2]; isoxaflutole 140 g ai/ha (2×)): 16 | Classification and statistics of the grade of pesticide damage Grade 1 ([2]; isoxaflutole 140 g ai/ha (2×)): 0 | Classification and statistics of the grade of pesticide damage Grade 2 ([2]; isoxaflutole 140 g ai/ha (2×)): 0 | Classification and statistics of the grade of pesticide damage Grade 3 ([2]; isoxaflutole 140 g ai/ha (2×)): 0 | Scores ([2]; isoxaflutole 140 g ai/ha (2×)): 0 | Resistance evaluation ([2]; isoxaflutole 280 g ai/ha (4×)): Highly resistant | Classification and statistics of the grade of pesticide damage Grade 0 ([2]; isoxaflutole 280 g ai/ha (4×)): 16 | Classification and statistics of the grade of pesticide damage Grade 1 ([2]; isoxaflutole 280 g ai/ha (4×)): 0 | Classification and statistics of the grade of pesticide damage Grade 2 ([2]; isoxaflutole 280 g ai/ha (4×)): 0 | Classification and statistics of the grade of pesticide damage Grade 3 ([2]; isoxaflutole 280 g ai/ha (4×)): 0 | Scores ([2]; isoxaflutole 280 g ai/ha (4×)): 0 | Resistance evaluation ([3]; mesotrione 210 g ai/ha (2×)): Highly resistant | Classification and statistics of the grade of pesticide damage Grade 0 ([3]; mesotrione 210 g ai/ha (2×)): 16 | Classification and statistics of the grade of pesticide damage Grade 1 ([3]; mesotrione 210 g ai/ha (2×)): 0 | Classification and statistics of the grade of pesticide damage Grade 2 ([3]; mesotrione 210 g ai/ha (2×)): 0 | Classification and statistics of the grade of pesticide damage Grade 3 ([3]; mesotrione 210 g ai/ha (2×)): 0 | Scores ([3]; mesotrione 210 g ai/ha (2×)): 0 | Resistance evaluation ([3]; mesotrione 420 g ai/ha (4×)): Highly resistant | Classification and statistics of the grade of pesticide damage Grade 0 ([3]; mesotrione 420 g ai/ha (4×)): 16 | Classification and statistics of the grade of pesticide damage Grade 1 ([3]; mesotrione 420 g ai/ha (4×)): 0 | Classification and statistics of the grade of pesticide damage Grade 2 ([3]; mesotrione 420 g ai/ha (4×)): 0 | Classification and statistics of the grade of pesticide damage Grade 3 ([3]; mesotrione 420 g ai/ha (4×)): 0 | Scores ([3]; mesotrione 420 g ai/ha (4×)): 0
